From the supplement of paper PMC12764529
± gives the half width of the 95% confidence interval.

Assay: folding stability dG unfold from trypsin proteolysis; higher = more stable
Procedure, shortened: (§1)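 Unfolding free energy was derived, per protease or combined, against a sequence-predicted unfolded-state K50 and a shared folded-state K50, starting from K50 inferred by Bayesian fitting of sequencing counts. Digestion with trypsin and chymotrypsin was carried out on designed mini-proteins under 80 residues without cysteine in a PA-tagged cDNA display construct. Only designs with AlphaFold2 dimer inter-PAE above 15 were kept.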

Sequence	folding stability dG unfold [kcal/mol]
SAGGSAGGSAGGPDAAPSAVREYVLVTVPVYAENGTPLGPVTVVAPASVSLAAVADAVFNSAGGSAGGSAGG [r7_109_TrMRF]	0.292 ± 0.077
KIVILEPGEEAELPGVKVIPVDGLRIREVEVNGKKILVIEMSEEEIENGNEEELEKLRELAEELGADEVILS [r1_438_TrROS_Hall]	1.13 ± 0.072
SAGTIKELLEKLPGFSVEVDPDDGTVWVMFRMPDHYVMIEIPIDKEDGNIKGIRIHRHDPNGEPKPIPLSAG [r5_367_TrROS]	1.44 ± 0.038
SAGGSAGGIIVWFPFDDIDELIKNGNIDEVEISRDPNDWFRFTPEIRPPPPPPPEQLAKNNKKNSAGGSAGG [r6_279_TrROS]	1.03 ± 0.16
SAGGSAGGSAGGIWITMRPDNPDEFIDALRKKGKIRIVEVEPKNGNVIMRVTLDGQPLTSAGGSAGGSAGGS [r10_695_TrROS]	0.0442 ± 0.14
SAGGSAGGSKPNEIKIKKIKIEVKIKKKKVDKEKGEEIYEIEEVKIEIEEITLSKEELEKLLKSAGGSAGGS [r12_723_TrROS_Hall]	1.54 ± 0.097
SVPVAPDKTYEIENIEEGNYLIKGLTLTPLPDGSVKIDKDIEPIEIPPKPPPLKYDPVKGGFIKPNDPLLSA [r9_603_JUSTAS]	0.319 ± 0.08
SAGGSAGGSAGMTKIVIQYEVPPDKPPPDLEEIKKSLPGAENIEITREELPNGTWVYTVESAGGSAGGSAGG [r17_205_JUSTAS]	0.694 ± 0.19
SAGGSAGGSAGVKSVGPIIYPNGEVFGDVKAEEETLPNGKKKLKIYATFSDGSKYEFTLDSAGGSAGGSAGG [r11_810_TrMRF]	-0.261 ± 0.34
SAGMGIVEALRRELEAAGLDVRVSATVEPLPDLGYVLITVHVEVRNENGEWVPLGPLTILLPVEEAERLSAG [r5_413_TrMRF]	2.9 ± 0.12
SAGGSMKIKVEYEELPNGKMVIRIDIPPEENNMTPEQVETIAKEIAEEFPNVKVETTPGSIWIRVPSAGGSA [r2_256_TrROS]	1.38 ± 0.1
SAGGSASVEVSVEEKDGTLTVTVTVEVDGKLVTVTVTLTLPPPPPLSAEELEKAREAEKEGKTVEVSAGGSA [r15_631_TrROS_Hall]	1.24 ± 0.12
SAGNITIEWEEYEDYRVIKITIPYKSPQQAPEEIESIIRKLGFPPNMKIEDIEVDPEEGHVEITIYIKSAGG [r19_186_TrROS]	3.85 ± 0.12
SAMRMISFPIESPEELEDELEEKFGVEVETFPDGMRMIKFRRNNEPVIIMIPPNNGHITIIPPEDMDKMSAG [r14_402_TrROS]	0.685 ± 0.19
SAGGPVIEVESLEELKKALELLKEGKEVVIRVRVRRTETLPDGRKRVEEREVVYRATVEDGKLTIEPLSAGG [r13_835_TrROS_Hall]	2.93 ± 0.092
SAGGSAGGSAGGKIEIKTFPDGYVLAKIEFPDEDKALVILAKVKPNPGKVLEAIIRPADSAGGSAGGSAGGS [r10_613_TrMRF]	1.2 ± 0.025

Sequence	folding stability dG unfold [kcal/mol]
SAGSMEPGEVLNVTMTFYDTSGNKLGTVNFTFTDEEEAKKKIEELAKEIKEKLNKNVKVTVEINKSPSLSAG [r5_232_JUSTAS]	3.5 ± 0.25
SAGGSAGGSAGGSKTVLLKVNGKLVLKELKVEVELEAEPETTTTTTTTTTLKPGETKTLSAGGSAGGSAGGS [r4_215_TrROS_Hall]	-0.499 ± 0.17
SAGGSAGGSAGTIRIKMKDGKPMEFPLKGLPKEDLDDPEFLDWIKDWARDSGMKIDDIEISAGGSAGGSAGG [r11_467_TrROS]	-0.62 ± 0.22
PNMKMEWIQIPPGDLNDPVKIEAPLPPGTQIMIWVHDNGNGEWRPIFTVNNDEITIKNLPDADHVWVWVIKS [r1_224_TrROS]	1.83 ± 0.13
SAGGSAGGSAGMSALVLKVKIYYPKELFSPEEIEKIKSARIEVEPFLVEVKIDPETGELGSAGGSAGGSAGG [r17_310_TrMRF]	1.84 ± 0.03
SSVPADAAPVTVTETVTVTLPVDTATGGVPEERVAAAREAAAARGFTEFTVTTDPAAGTVTVTVTRTSRVSA [r9_201_JUSTAS]	0.77 ± 0.055
SAGGSKTVTVTVRIKVTNEDGEELTVTARLTYNEETGEVTVEIEMSPEALERLRELFPDVKIEIYPSAGGSA [r2_409_TrROS_Hall]	4.08 ± 0.22
SAGGMELVSRKRLSTSADGSVTYLYEYYDPKTGKRYTLVVTVKTPDGKIKPKVFTADSEEEAKKIALESAGG [r13_26_JUSTAS]	1.1 ± 0.06
SAFNIEIEEVDPNEIYIKIDATPEQLEEIAEDIMKNFPGYKVKWEWDDEQGKIWFRIRPVPPPPPEDQNSAG [r14_600_TrROS]	1.14 ± 0.1
SAGGSAMTLRLELRVRLQVFNEDGELLGERELDIEIELEGEPLEVPPPPEIDPEEAARLLGLDPDGSAGGSA [r15_572_TrMRF]	0.909 ± 0.098
SAGGAMPVELVETLEEIPGKGIVLRKFRDPLSDKWFLATVPVETLPNGEKKYLIELNIDGSGMTLELGSAGG [r13_993_JUSTAS]	0.0151 ± 0.099
SEPRYHVEIRLPVLLVVPPELLEPDPERDSYRLPEDDLPVHPDAVIPREVTFSGPMTAEEVVRRTLALLSSA [r9_165_TrMRF]	0.455 ± 0.11
SAGGSAGGSAGGMIRIENPGNGEPRPIKPNDLEDILDNFPGPMRIETGGGEKEVPAKDISAGGSAGGSAGGS [r10_839_TrROS]	-0.528 ± 0.13
SAGGMTLTLTGPEEVVDDLLERLREEFPDVTVEPTAVSYDPATGLVTVPVRVVTEDPAVVAAIRAALSSAGG [r13_539_JUSTAS]	4.08 ± 0.091
SAGGSAGGSAGMDIDILTETEVTRYPDGTVVTTTTTRDSSGEVLSTTTTTTTVTPATPAASAGGSAGGSAGG [r11_452_JUSTAS]	2.24 ± 0.15

Assay: folding stability dG unfold from chymotrypsin proteolysis; higher = more stable
Procedure, shortened: as §1

Sequence	folding stability dG unfold [kcal/mol]
SAGGSAGGSAGGPDAAPSAVREYVLVTVPVYAENGTPLGPVTVVAPASVSLAAVADAVFNSAGGSAGGSAGG [r7_109_TrMRF]	0.368 ± 0.19
KIVILEPGEEAELPGVKVIPVDGLRIREVEVNGKKILVIEMSEEEIENGNEEELEKLRELAEELGADEVILS [r1_438_TrROS_Hall]	1.27 ± 0.062
SAGTIKELLEKLPGFSVEVDPDDGTVWVMFRMPDHYVMIEIPIDKEDGNIKGIRIHRHDPNGEPKPIPLSAG [r5_367_TrROS]	1.19 ± 0.22
SAGGSAGGIIVWFPFDDIDELIKNGNIDEVEISRDPNDWFRFTPEIRPPPPPPPEQLAKNNKKNSAGGSAGG [r6_279_TrROS]	0.493 ± 0.11
SAGGSAGGSAGGIWITMRPDNPDEFIDALRKKGKIRIVEVEPKNGNVIMRVTLDGQPLTSAGGSAGGSAGGS [r10_695_TrROS]	0.53 ± 0.11
SAGGSAGGSKPNEIKIKKIKIEVKIKKKKVDKEKGEEIYEIEEVKIEIEEITLSKEELEKLLKSAGGSAGGS [r12_723_TrROS_Hall]	2.06 ± 0.088
SVPVAPDKTYEIENIEEGNYLIKGLTLTPLPDGSVKIDKDIEPIEIPPKPPPLKYDPVKGGFIKPNDPLLSA [r9_603_JUSTAS]	0.592 ± 0.19
SAGGSAGGSAGMTKIVIQYEVPPDKPPPDLEEIKKSLPGAENIEITREELPNGTWVYTVESAGGSAGGSAGG [r17_205_JUSTAS]	0.405 ± 0.3
SAGGSAGGSAGVKSVGPIIYPNGEVFGDVKAEEETLPNGKKKLKIYATFSDGSKYEFTLDSAGGSAGGSAGG [r11_810_TrMRF]	0.728 ± 0.13
SAGMGIVEALRRELEAAGLDVRVSATVEPLPDLGYVLITVHVEVRNENGEWVPLGPLTILLPVEEAERLSAG [r5_413_TrMRF]	2.43 ± 0.07
SAGGSMKIKVEYEELPNGKMVIRIDIPPEENNMTPEQVETIAKEIAEEFPNVKVETTPGSIWIRVPSAGGSA [r2_256_TrROS]	1.21 ± 0.2
SAGGSASVEVSVEEKDGTLTVTVTVEVDGKLVTVTVTLTLPPPPPLSAEELEKAREAEKEGKTVEVSAGGSA [r15_631_TrROS_Hall]	2.77 ± 0.16
SAGNITIEWEEYEDYRVIKITIPYKSPQQAPEEIESIIRKLGFPPNMKIEDIEVDPEEGHVEITIYIKSAGG [r19_186_TrROS]	4.65 ± 0.083
SAMRMISFPIESPEELEDELEEKFGVEVETFPDGMRMIKFRRNNEPVIIMIPPNNGHITIIPPEDMDKMSAG [r14_402_TrROS]	1.28 ± 0.21
SAGGPVIEVESLEELKKALELLKEGKEVVIRVRVRRTETLPDGRKRVEEREVVYRATVEDGKLTIEPLSAGG [r13_835_TrROS_Hall]	3.91 ± 0.13
